Biological target: SARS-CoV-2 spike receptor-binding domain (RBD), recombinant, produced in house (SARS-CoV-2) (UniProt P0DTC2)
Assay: SEC

Substance: SARS-CoV-2 spike receptor-binding domain (RBD), recombinant, produced in house (from UniProt P0DTC2) (domain or fragment)
- stoichiometry N: 3

From paper PMC8393265
